Data from paper PMC6753162, “The interactome of 2-Cys peroxiredoxins in Plasmodium falciparum” (Scientific Reports, 2019).

Tests used:
[1] = target: the molecule itself; assay: not stated; 6xHis-tagged Prx reduced with DTT, in purification buffer and in coupling buffer; method not given
[2] = target: T1, recombinant PfSAHH wt (P. falciparum, UniProt P50250 1-479); assay: pull-down; 2 mg reduced PfPrx1a wt on CNBr-activated Sepharose 4B; 8 mg purified recombinant PfLDH wt or PfSAHH wt (not pre-reduced); extensive washing; eluted with 10 mM DTT; silver-stained 12% SDS-PAGE; settings: both partners purified
T1 construct: S-adenosyl-L-homocysteine hydrolase, Plasmodium falciparum, wild type; not pre-reduced in the assay; also called S-adenosyl-L-homocysteine hydrolase; source: recombinant, purified (produced as previously described)
T1 sequence (P50250 whole entry): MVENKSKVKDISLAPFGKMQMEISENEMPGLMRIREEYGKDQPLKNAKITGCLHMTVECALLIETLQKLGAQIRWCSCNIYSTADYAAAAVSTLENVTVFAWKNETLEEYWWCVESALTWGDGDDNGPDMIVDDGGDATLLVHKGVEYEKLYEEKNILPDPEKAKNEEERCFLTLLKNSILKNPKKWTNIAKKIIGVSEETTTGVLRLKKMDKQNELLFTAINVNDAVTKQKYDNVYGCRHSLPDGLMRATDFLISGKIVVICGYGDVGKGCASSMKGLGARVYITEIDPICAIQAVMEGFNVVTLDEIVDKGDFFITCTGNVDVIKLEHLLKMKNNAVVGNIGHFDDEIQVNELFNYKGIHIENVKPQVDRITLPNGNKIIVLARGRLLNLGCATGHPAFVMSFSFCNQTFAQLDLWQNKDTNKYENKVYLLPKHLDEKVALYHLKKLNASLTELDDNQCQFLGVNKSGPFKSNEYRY

B1: PfPrx1m wild type (enzyme, P. falciparum)
chain: SLVTKKAYNFTAQGLNKNNEIINVDLSSFIGQKYCCLLFYPLNYTFVCPTEIIEFNKHIKDFENKNVELLGISVDSVYSHLAWKNMPIEKGGIGNVEFTLVSDINKDISKNYNVLYDNSFALRGLFIIDKNGCVRHQTVNDLPIGRNVQEVLRTIDSIIHVDTSGEVCPINWKKGQKAFKPTTESLIDYMNNANKNV
notes: PfPrx1m (thioredoxin peroxidase 2), Plasmodium falciparum, mitochondrial; peroxidatic C67, resolving C187, further C54, C55, C152; also called PfPrx1m wt; thioredoxin peroxidase 2; source: E. coli M15 (pQE30), purified (Ni-NTA); not shown: His6, N-terminal, kept; copies: 10
stoichiometry N [1]: 10

B2: PfPrx1a wild type (enzyme, P. falciparum, UniProt Q8IL80 1-195, looked up)
chain: MASYVGREAPYFKAEAVFADNTFGEVNLHDFIGKKYVLLYFYPLDFTFVCPSEIIALDKALDAFKERNVELIGCSVDSKYTHLAWKKTPLTKGGIGNIQHTLISDITKSISRSYNVLFGDSVSLRAFVLIDKQGVVQHLLVNNLAIGRSVEEVLRIIDAVQHHEQHGDVCPANWKKGKVAMKPSEEGVSEYLSKL
notes: PfPrx1a (thioredoxin peroxidase 1), Plasmodium falciparum; peroxidatic C50, resolving C170, further C74; also called PfPrx1a wt; thioredoxin peroxidase 1; source: E. coli M15 (pQE30), purified (Ni-NTA); not shown: His6, N-terminal, kept; copies: 10
binding result [2]: binds
stoichiometry N [1]: 10
